# Measured values as given in patent publication US20090227507A1, “Angiotensin (1-7) Dosage Forms and Uses Thereof” (UNIVERSITY OF SOUTHERN CALIFORNIA, priority 2008, published 2009).
# Entries after “also recorded” stand apart in the source; their conditions may differ.
# Key:
# [1] = Vital signs (blood pressure, pulse rate, respiration rate, oral temperature) in healthy men; type: in vivo, human; conditions: for oral body temperature, Subject 042 / oral body temperature, Subject 046 / oral body temperature, Subject 053 / oral body temperature, Subject 055: 300 μg/kg
# Protocol: Safety assessments during the study period included vital sign measurement (systolic [SBP] and diastolic [DBP] blood pressure, heart rate [HR], respiratory rate [RR] in the sitting position, and oral temperature), clinical chemistry, hematology, urinalysis, 12-lead electrocardiogram (ECG) in the supine position, and AE monitoring. Clinical chemistry/hematology samples were drawn within a 30-minute period prior to dosing on selected dosing days.
# Vital signs were measured immediately prior to dosing, every hour for the first 6 hours post-dosing, then every 3 hours up to 12 hours post-dosing.
# Vital signs, including SBP, DBP, RR, and HR were done at Screening, on each day immediately before and at 1, 3, and 6 hours after each SC injection, and at 24 hours after the last injection on Day 7. On Day 1, they were taken every hour for the first 6 hours, then every 3 hours up to 12 hours after the dose.
# [2] = Physical examination in healthy men; type: in vivo, human; conditions: all dose groups; baseline (Day 1) to Day 20
# Excerpt: On Day −1, subjects who met the eligibility criteria underwent a PE, vital sign measurements, and had samples drawn to evaluate clinical laboratory parameters. On Study Days 1 through 7 for each cohort, subjects received a single SC injection of USB003 at the assigned dose level or placebo. Subjects were kept in the clinic under observation for the entire Day −1 to Day 8 period. Subjects were discharged from the clinic on the morning of Day 8 after all scheduled procedures and a 24-hour urine collection had been completed. Subjects were scheduled to return to the clinic on Days 11, 14, 17, and 20 for hematology measurements and selected safety assessments. Subjects were to be released from the study following a post-study PE on Day 20.
# On Day 20 of the study, subjects were to have returned to the clinic for the post-study check and PE. Blood samples for hematology and plasma USB003 were also drawn.
# Laboratory measurements were conducted by a local clinical laboratory.
# [3] = Adverse events, safety and tolerability in healthy men
# Excerpt: Safety: Safety and tolerance evaluations included: • Tolerability including local reactions at the injection site. • Vital signs (blood pressure [BP], pulse rate [PR], respiration rate [RR], and temperature). • Routine clinical laboratory tests (hematology, serum biochemistry, and urinalysis). • Recording of adverse events (AE). • Electrocardiograms (ECG) at baseline and Day 8.
# Descriptive statistics were used to summarize adverse events (AEs). Descriptive statistics, with change from baseline, were used for clinical laboratory results, vital signs, and flow cytometry data. Shift tables were prepared for clinical laboratory results. Other data are listed.
# Safety evaluations are based on AEs, PEs, vital signs, temperature, and laboratory results from baseline to study completion. Laboratory measurements were conducted by a local clinical laboratory. Using standard procedures, blood samples were drawn or urine collected from subjects for the following laboratory tests:
# All AEs were coded using the Medical Dictionary for Regulatory Activities Version 5.1 (MedDRA®).
# [4] = approximately 6 hours after Day 3 study medication
# [5] = 200 μg/kg group, of the 7 events
# [6] = 300 μg/kg group, of the 13 events
substance,measurement,setting,value
Asp-Arg-Val-Tyr-Ile-His-Pro [USB003],change from baseline in mean body temperatures,"[1]; 300 μg/kg dose group compared to 200 μg/kg, especially 6-hour post-dose, Study Day 3",clearly notable increase
same,"oral body temperature, Subject 042","[1]; Day 1, 4-hour post-dose",37.8 °C
same,"oral body temperature, Subject 042","[1]; Day 1, 9-hour post-dose",38.1 °C
same,"oral body temperature, Subject 042","[1]; Day 1, one hour after first dose",37.4 °C
same,"oral body temperature, Subject 042","[1]; Day 2, 6-hour-post-dose",38.7 °C
same,"oral body temperature, Subject 042",[1]; Day 2 pre-dose,37.4 °C
same,"oral body temperature, Subject 046",[1]; Day 2 pre-dose,35.9 °C
same,"oral body temperature, Subject 046","[1]; Day 3, 6-hour post-dose",37.9 °C
same,"oral body temperature, Subject 046",[1]; Day 4 pre-dose,36.8 °C
same,"oral body temperature, Subject 053",[1]; Day 4 pre-dose,36.4 °C
same,"oral body temperature, Subject 055",[1]; Day 4 pre-dose,37.1 °C
same,"oral body temperature, Subject 053",[1]; Day 7 pre-dose,37.0 °C
same,"oral body temperature, Subject 042",[1]; Day 8,36.9 °C
same,"oral body temperature, Subject 053",[1]; [4],37.8 °C
same,"oral body temperature, Subject 055",[1]; [4],38.0 °C
same,"oral body temperature, Subject 053",[1]; approximately 6 hours after Day 6 study medication,37.9 °C
same,"oral body temperature, Subject 046",[1]; approximately 7 hours and 45 minutes after first dosing,37.8 °C
same,"oral body temperature, Subject 046",[1]; approximately 14 hours after the first dose,38.0 °C
same,"oral body temperature, Subject 046",[1]; one hour after first dose,37.3 °C
same,changes from baseline for the mean RR,[1]; all measured time points,no clinically meaningful changes
same,mean change in pulse rate,"[1]; by 3-hour post-dose in all treatment groups, continuing in the USB003 groups at last vital sign of the day",mildly notable increase
same,change in mean SBP and DBP compared to baseline,[1]; no apparent difference in dose groups,mild decrease
same,PE findings,[2],no changes from baseline
same,incidence of ALT increase,[3]; 200 μg/kg,22.2%
same,incidence of body temperature increase,[3]; 200 μg/kg,0.0%
same,"ALT increased, Events",[3]; 200 μg/kg (N = 9),2
same,"ALT increased, Subjects",[3]; 200 μg/kg (N = 9),2 (22.2) N (%)
same,"AST increased, Events",[3]; 200 μg/kg (N = 9),1
same,"AST increased, Subjects",[3]; 200 μg/kg (N = 9),1 (11.1) N (%)
same,"Body temperature increased, Events",[3]; 200 μg/kg (N = 9),0
same,"Body temperature increased, Subjects",[3]; 200 μg/kg (N = 9),0 (0.0) N (%)
same,"Cyst NOS, Events",[3]; 200 μg/kg (N = 9),1
same,"Cyst NOS, Subjects",[3]; 200 μg/kg (N = 9),1 (11.1) N (%)
same,"Gastroesophageal reflux, Events",[3]; 200 μg/kg (N = 9),0
same,"Gastroesophageal reflux, Subjects",[3]; 200 μg/kg (N = 9),0 (0.0) N (%)
same,"Gastrointestinal disorders, Events",[3]; 200 μg/kg (N = 9),0
same,"Gastrointestinal disorders, Subjects",[3]; 200 μg/kg (N = 9),0 (0.0) N (%)
same,"Headache, Events",[3]; 200 μg/kg (N = 9),0
same,"Headache, Subjects",[3]; 200 μg/kg (N = 9),0 (0.0) N (%)
same,"Infections/Infestations, Events",[3]; 200 μg/kg (N = 9),0
same,"Injury, poisoning and procedural complications, Events",[3]; 200 μg/kg (N = 9),0
same,"Injury, poisoning and procedural complications, Subjects",[3]; 200 μg/kg (N = 9),0 (0.0) N (%)
same,"Investigations, Events",[3]; 200 μg/kg (N = 9),4
same,"Investigations, Subjects",[3]; 200 μg/kg (N = 9),2 (22.2) N (%)
same,"Joint sprain, Events",[3]; 200 μg/kg (N = 9),0
same,"Joint sprain, Subjects",[3]; 200 μg/kg (N = 9),0 (0.0) N (%)
same,"Nasal congestion, Events",[3]; 200 μg/kg (N = 9),1
same,"Nasal congestion, Subjects",[3]; 200 μg/kg (N = 9),1 (11.1) N (%)
same,"Nausea, Events",[3]; 200 μg/kg (N = 9),0
same,"Nausea, Subjects",[3]; 200 μg/kg (N = 9),0 (0.0) N (%)
same,"Neoplasms benign, Events",[3]; 200 μg/kg (N = 9),1
same,"Neoplasms benign, Subjects",[3]; 200 μg/kg (N = 9),1 (11.1) N (%)
same,"Nervous system disorders, Events",[3]; 200 μg/kg (N = 9),0
same,"Nervous system disorders, Subjects",[3]; 200 μg/kg (N = 9),0 (0.0) N (%)
same,"Neutrophil count increased, Events",[3]; 200 μg/kg (N = 9),0
same,"Neutrophil count increased, Subjects",[3]; 200 μg/kg (N = 9),0 (0.0) N (%)
same,"Pharyngitis, Events",[3]; 200 μg/kg (N = 9),1
same,"Pharyngitis, Subjects",[3]; 200 μg/kg (N = 9),1 (11.1) N (%)
same,"Respiratory, thoracic and mediastinal disorders, Events",[3]; 200 μg/kg (N = 9),2
same,"Respiratory, thoracic and mediastinal disorders, Subjects",[3]; 200 μg/kg (N = 9),1 (11.1) N (%)
same,"Subjects With At Least 1 AE, Events",[3]; 200 μg/kg (N = 9),7
same,"Subjects With At Least 1 AE, Subjects",[3]; 200 μg/kg (N = 9),4 (44.4) N (%)
same,"WBC increased, Events",[3]; 200 μg/kg (N = 9),1
same,"WBC increased, Subjects",[3]; 200 μg/kg (N = 9),1 (11.1) N (%)
same,"White blood cells in urine, Events",[3]; 200 μg/kg (N = 9),0
same,"White blood cells in urine, Subjects",[3]; 200 μg/kg (N = 9),0 (0.0) N (%)
same,subjects with clinically significant (CS) out-of-range laboratory values,[3]; 200 μg/kg dose group,3
same,total CS laboratory abnormalities,[3]; 200 μg/kg dose group,6
same,incidence of AEs,[3]; 200 μg/kg group,44.4%
same,AE events assessed as doubtful relationship to study drug,[3]; [5],3
same,AE events assessed as not related to study drug,[3]; [5],2
same,AE events assessed as possible relationship to study drug,[3]; [5],2
same,"adverse event, Subject 028","[3]; 200 μg/kg, Day 7, resolved without treatment on Study Day 10",cystic nodule on their anterior abdominal wall
same,incidence of ALT increase,[3]; 300 μg/kg,0.0%
same,incidence of body temperature increase,[3]; 300 μg/kg,50%
same,"ALT increased, Events",[3]; 300 μg/kg (N = 8),0
same,"ALT increased, Subjects",[3]; 300 μg/kg (N = 8),0 (0.0) N (%)
same,"AST increased, Events",[3]; 300 μg/kg (N = 8),1
same,"AST increased, Subjects",[3]; 300 μg/kg (N = 8),1 (12.5) N (%)
same,"Body temperature increased, Events",[3]; 300 μg/kg (N = 8),7
same,"Body temperature increased, Subjects",[3]; 300 μg/kg (N = 8),4 (50.0) N (%)
same,"Cyst NOS, Events",[3]; 300 μg/kg (N = 8),0
same,"Cyst NOS, Subjects",[3]; 300 μg/kg (N = 8),0 (0.0) N (%)
same,"Gastroesophageal reflux, Events",[3]; 300 μg/kg (N = 8),0
same,"Gastroesophageal reflux, Subjects",[3]; 300 μg/kg (N = 8),0 (0.0) N (%)
same,"Gastrointestinal disorders, Events",[3]; 300 μg/kg (N = 8),1
same,"Gastrointestinal disorders, Subjects",[3]; 300 μg/kg (N = 8),1 (12.5) N (%)
same,"Headache, Events",[3]; 300 μg/kg (N = 8),0
same,"Headache, Subjects",[3]; 300 μg/kg (N = 8),1 (12.5) N (%)
same,"Infections/Infestations, Events",[3]; 300 μg/kg (N = 8),1
same,"Injury, poisoning and procedural complications, Events",[3]; 300 μg/kg (N = 8),1
same,"Injury, poisoning and procedural complications, Subjects",[3]; 300 μg/kg (N = 8),1 (12.5) N (%)
same,"Investigations, Events",[3]; 300 μg/kg (N = 8),9
same,"Investigations, Subjects",[3]; 300 μg/kg (N = 8),4 (50.0) N (%)
same,"Joint sprain, Events",[3]; 300 μg/kg (N = 8),1
same,"Joint sprain, Subjects",[3]; 300 μg/kg (N = 8),1 (12.5) N (%)
same,"Nasal congestion, Events",[3]; 300 μg/kg (N = 8),0
same,"Nasal congestion, Subjects",[3]; 300 μg/kg (N = 8),0 (0.0) N (%)
same,"Nausea, Events",[3]; 300 μg/kg (N = 8),1
same,"Nausea, Subjects",[3]; 300 μg/kg (N = 8),1 (12.5) N (%)
same,"Neoplasms benign, Events",[3]; 300 μg/kg (N = 8),0
same,"Neoplasms benign, Subjects",[3]; 300 μg/kg (N = 8),0 (0.0) N (%)
same,"Nervous system disorders, Events",[3]; 300 μg/kg (N = 8),0
same,"Nervous system disorders, Subjects",[3]; 300 μg/kg (N = 8),1 (12.5) N (%)
same,"Neutrophil count increased, Events",[3]; 300 μg/kg (N = 8),1
same,"Neutrophil count increased, Subjects",[3]; 300 μg/kg (N = 8),1 (12.5) N (%)
same,"Pharyngitis, Events",[3]; 300 μg/kg (N = 8),0
same,"Pharyngitis, Subjects",[3]; 300 μg/kg (N = 8),0 (0.0) N (%)
same,"Respiratory, thoracic and mediastinal disorders, Events",[3]; 300 μg/kg (N = 8),0
same,"Respiratory, thoracic and mediastinal disorders, Subjects",[3]; 300 μg/kg (N = 8),0 (0.0) N (%)
same,"Subjects With At Least 1 AE, Events",[3]; 300 μg/kg (N = 8),13
same,"Subjects With At Least 1 AE, Subjects",[3]; 300 μg/kg (N = 8),4 (50.0) N (%)
same,"WBC increased, Events",[3]; 300 μg/kg (N = 8),0
same,"WBC increased, Subjects",[3]; 300 μg/kg (N = 8),0 (0.0) N (%)
same,"White blood cells in urine, Events",[3]; 300 μg/kg (N = 8),0
same,"White blood cells in urine, Subjects",[3]; 300 μg/kg (N = 8),0 (0.0) N (%)
same,subjects with clinically significant (CS) out-of-range laboratory values,[3]; 300 μg/kg dose group,1
same,total CS laboratory abnormalities,[3]; 300 μg/kg dose group,2
same,subjects with elevations in oral body temperature assessed as an AE,"[3]; 300 μg/kg dose group, temperature >37.7° C.",4
same,incidence of AEs,[3]; 300 μg/kg group,50.0%
same,AE events assessed as doubtful relationship to study drug,[3]; [6],2
same,AE events assessed as not related to study drug,[3]; [6],3
same,AE events assessed as possible relationship to study drug,[3]; [6],8
same,"onset of headache after the morning dose, Subject 053","[3]; 300 μg/kg, Day 2",10 h
same,"time to resolution of headache without treatment, Subject 053","[3]; 300 μg/kg, Day 2",5 h
same,"severity of ankle sprain, Subject 046","[3]; 300 μg/kg, study Day 18",Grade 2
same,deaths or serious adverse events,[3]; SC doses of 200 and 300 μg/kg,no deaths or other serious adverse events; also recorded: no deaths or SAEs
same,discontinuation from the study because of an AE,[3]; SC doses of 200 and 300 μg/kg,no subject discontinued from the study because of an AE; also recorded: no AE led to withdrawal from the study
same,safety and tolerability,[3]; SC doses of 200 and 300 μg/kg,safe and well tolerated
same,CTC scores of AEs,[3]; whole study,no AEs with CTC scores of Grade 3 or higher and only 1 Grade 2 toxicity
